Patent publication US20250134988A1 (WISTAR INSTITUTE OF ANATOMY AND BIOLOGY, published 2025)
Positions count from the first letter of the chain named. Like-named read-outs stand apart in the source and are kept apart here.

Tests used:
[1] = biological target: T1, off-target V5 peptide; assay: ELISA on fusion peptides
T1 construct: also called V5 tag
T1 peptide: GKPIPNPLLGLDST

[2] = biological target: T2, CoV2_5P_MERSFP (SARS-CoV-2 spike with MERS fusion …, UniProt P0DTC2 14-1208); assay: ELISA, AUC
[3] = biological target: T3, CoV2_5P_OC43FP (SARS-CoV-2 spike with OC43 fusion …, UniProt P0DTC2 14-1208); assay: ELISA, AUC
[4] = biological target: T4, CoV2_5P_NonSFP (SARS-CoV-2, UniProt P0DTC2 14-1208); assay: ELISA, AUC
T4 construct: also called scrambled fusion peptide spike

[5] = biological target: T5, CoV2_5P_229EFP (SARS-CoV-2 spike with 229E fusion …, UniProt P0DTC2 14-1208); assay: ELISA, AUC
[6] = biological target: T6, CoV2_5P_NL63FP (SARS-CoV-2 spike with NL63 fusion …, UniProt P0DTC2 14-1208); assay: ELISA, AUC
[7] = biological target: T7, CoV2_5P prefusion-stabilized spike protein (SARS-CoV-2, UniProt P0DTC2 14-1208); assay: ELISA
T7 construct: also called 5P trimer; wildtype 5P

[8] = biological target: CoV2_5P_HKU1FP (SARS-CoV-2 spike with HKU1 fusion …, UniProt P0DTC2 14-1208); assay: ELISA AUC on 5P spikes with varying fusion peptides
[9] = biological target: T7, CoV2_5P prefusion-stabilized spike …; assay: ELISA, AUC
[10] = biological target: T2, CoV2_5P_MERSFP; assay: ELISA AUC on 5P spikes with varying fusion peptides
[11] = biological target: T5, CoV2_5P_229EFP; assay: as above
[12] = biological target: T3, CoV2_5P_OC43FP; assay: ELISA, AUC; remark: listed apart in the source
[13] = biological target: T4, CoV2_5P_NonSFP; assay: ELISA, AUC; remark: listed apart in the source
[14] = biological target: T7, CoV2_5P prefusion-stabilized spike …; assay: ELISA, AUC; remark: listed apart in the source
[15] = biological target: T6, CoV2_5P_NL63FP; assay: ELISA, AUC; remark: listed apart in the source
[16] = biological target: T2, CoV2_5P_MERSFP; assay: ELISA, AUC; remark: listed apart in the source
[17] = biological target: T5, CoV2_5P_229EFP; assay: ELISA, AUC; remark: listed apart in the source

B1: C2691 (antibody, V domains shown)
VH: QVQLQQSGPELVRPGESVKISCKGSGYTFTDYAMHWVKQSHAKSLEWIGIISFYYDNTKYNQNFKGKATMTVDKSSSTAYMELARLTSEDSAIYFCASQGIHYYGSFAYWGQGTLVTVSA
VL: DIVMTQSQKFMSTSVGDRVSVSCKASQNVGTNLGWYQQKPGQSPKALIYSASYRYSGVPDRFTGSGSGTDFTLTISNVQSEDLAEYFCQQYNSSPLTFGAGTKLELK
notes: also called lineage HV1-67/KV6-15 antibody C2691
binding result [1]: no binding (tested: dilution 0.05 (no unit))
binding result [2]: binds
binding result [3]: binds
binding result [4]: no binding
binding result [5]: binds
binding result [6]: binds
binding result [7]: binds
binding result [8]: binds

B2: C2891 (antibody, V domains shown)
VH: B1 VH with E10A, H41R, I51F, K59N, N61T, N63K, F95Y
VL: B1 VL with S22T, G30A, A46T, Q89H, S93G, S94Y
binding result [2]: no binding
binding result [3]: no binding
binding result [4]: no binding
binding result [9]: no binding
binding result [5]: no binding
binding result [6]: no binding

B3: C2866 (antibody, V domains shown)
VH: B1 VH with I51F
VL: B1 VL with S22T, L33V, K45Q, S94Y
notes: Lineage HV1-67/KV6-15
binding result [4]: no binding

B4: C2503 (antibody, V domains shown)
VH: B1 VH with A42S
VL: B1 VL with S22T, L33V, P44H, E85D, S93N, S94Y
notes: Lineage HV1-67/KV6-15
binding result [4]: no binding

B5: C668 (antibody, V domains shown)
VH: EVKLVESGGGLVKPGGSLKLSCLVSGITFSNDAMSWVRQTPEKRLEWVASISSGGRNYYPDSVKGRFTISRDNARNILYLQMSSLRSEDTAMYFCAREGISVWAMDYWGQGTSVTVSS
VL: DIVMTQAAFSNPVTLGTSASISCRSSKSLLHSNGITYLYWYLQRPGQSPQLLIYRMSNLASGVPDRFSSSGSGTDFTLRISRVEAEDVGVYYCAQNLELPPTFGGGTKLEIK
notes: also called lineage HV5-6-5/KV2-109 antibody C668
EC50 (read off the curve) [7]: ~0.2 µg/mL

B6: C862 (antibody, V domains shown)
VH: EVKLVESGGGLVKPGGSLKLSCAASGITFSSSAMSWVRQTPEKRLEWVASISSGGHTYYLDSMKGRFTISRDNARNILYLQMGSLRSEDTAVYYCAREGIYVWAMDYWGQGTSVTVSS
VL: B5 VL with H31Q, R44K, S69G, V90I
binding result [10]: binds
binding result [8]: binds
binding result [11]: binds
binding result [12]: binds
binding result [13]: no binding
binding result [14]: binds
binding result [15]: binds

B7: C1766 (antibody, V domains shown)
VH: B5 VH with L23V, V24A, I27F, N57K, S62N, F94Y, S101Y
VL: B5 VL with K27E, R44K
binding result [8]: binds
binding result [16]: binds
binding result [12]: binds
binding result [13]: no binding
binding result [14]: binds
binding result [17]: binds
binding result [15]: binds
